Patent US8097440B1, “Engineered microorganisms capable of producing target compounds under anaerobic conditions” (Gevo, Inc., priority 2008, dated 2012)

What was measured:
[1] = molecular target: T1, Escherichia coli KARI (ketol-acid reductoisomerase) Ec_IlvC^his6, wild type IlvC (SEQ ID NO: 13) with his6-tag, SEQ ID NO: 15 (Escherichia coli, UniProt P05793); experiment: KARI cuvette assay, purified Ec_IlvC^his6 (parent / wild type); type: biochemical, E. coli; conditions: purified; acetolactate as substrate
T1 sequence (P05793 with tags, fused parts or gaps): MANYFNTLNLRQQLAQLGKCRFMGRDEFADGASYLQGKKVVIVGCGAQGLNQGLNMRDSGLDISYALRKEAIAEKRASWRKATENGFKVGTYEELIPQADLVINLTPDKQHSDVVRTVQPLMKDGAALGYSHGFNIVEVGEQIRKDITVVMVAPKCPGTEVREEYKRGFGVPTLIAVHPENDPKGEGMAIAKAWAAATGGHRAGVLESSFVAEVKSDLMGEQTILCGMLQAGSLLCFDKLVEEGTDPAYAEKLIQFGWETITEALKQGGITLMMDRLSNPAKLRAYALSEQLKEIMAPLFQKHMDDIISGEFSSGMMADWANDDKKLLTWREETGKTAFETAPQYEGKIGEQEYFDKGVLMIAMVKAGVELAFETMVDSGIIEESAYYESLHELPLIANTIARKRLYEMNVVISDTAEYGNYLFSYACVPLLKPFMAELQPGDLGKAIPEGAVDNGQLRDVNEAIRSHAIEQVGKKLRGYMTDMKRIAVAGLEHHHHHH
Experimental: KARI cuvette assay: KARI activity was assayed kinetically by monitoring the decrease in NAD(P)H concentration by measuring the absorbance at 340 nm. A reaction buffer was prepared containing 250 mM potassium phosphate pH 7, 1 mM DTT and 10 mM MgCl2. Cell pellets were resuspended (0.25 g wet weight/mL buffer) in 250 mM potassium phosphate (KPi) buffer containing 1 mM DTT and 10 mM MgCl2. The resuspended cells were lysed by sonication for 1 min with a 50% duty cycle and pelleted at 11000×g and 4° C. for 15 min. A reaction mixture consisting of 910 μl reaction buffer, 50 μl acetolactate, and 20 μl lysate was prepared in a cuvette. […]
Only 20% of the enzymes of the recombination library were active on NADH. After screening 1,000 clones using the NADH depletion assay at 340 nm, 26 KARI variants were selected for a rescreen by the high-throughput assay described in Example 14 and eight thereof were expressed in 25 ml LBamp medium in shake flasks according to the protocol for cell growth and protein expression in shake flasks as described in Example 14, purified according to the protocol for purification of KARI enzymes as described in Example 14, and NAD(P)H depletion at 340 nm was measured again. […] The KM values of variants Ec_llvC^2H10-his6 and Ec_llvC^6E6-his6 were measured and the catalytic efficiencies were calculated.

[2] = molecular target: T2, E. coli KARI Ec_IlvC variant Ec_IlvC^S78D-his6 (S78D), SEQ ID NO: 17 (Escherichia coli, UniProt P05793, S78D); experiment: KARI cuvette assay, purified Ec_IlvC^S78D-his6; type: biochemical; conditions: from 1075 μM to 130 μM
T2 sequence (P05793 with tags, fused parts or gaps S78D): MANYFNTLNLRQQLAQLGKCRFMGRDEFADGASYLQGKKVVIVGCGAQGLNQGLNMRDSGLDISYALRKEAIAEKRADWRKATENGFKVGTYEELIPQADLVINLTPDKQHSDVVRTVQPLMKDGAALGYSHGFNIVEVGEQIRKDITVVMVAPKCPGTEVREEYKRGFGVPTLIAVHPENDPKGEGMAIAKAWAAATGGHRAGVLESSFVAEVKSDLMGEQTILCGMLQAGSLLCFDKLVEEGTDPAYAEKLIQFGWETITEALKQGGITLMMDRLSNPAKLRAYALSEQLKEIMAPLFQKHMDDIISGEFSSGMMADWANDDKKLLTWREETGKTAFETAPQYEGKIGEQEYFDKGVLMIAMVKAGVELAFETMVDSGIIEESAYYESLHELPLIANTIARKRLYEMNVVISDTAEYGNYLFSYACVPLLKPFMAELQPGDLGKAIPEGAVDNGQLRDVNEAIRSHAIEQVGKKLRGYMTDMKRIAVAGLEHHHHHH
Experimental: (§1) KARI cuvette assay: KARI activity was assayed kinetically by monitoring the decrease in NAD(P)H concentration by measuring the absorbance at 340 nm. A reaction buffer was prepared containing 250 mM potassium phosphate pH 7, 1 mM DTT and 10 mM MgCl2. Cell pellets were resuspended (0.25 g wet weight/mL buffer) in 250 mM potassium phosphate (KPi) buffer containing 1 mM DTT and 10 mM MgCl2. The resuspended cells were lysed by sonication for 1 min with a 50% duty cycle and pelleted at 11000×g and 4° C. for 15 min. A reaction mixture consisting of 910 μl reaction buffer, 50 μl acetolactate, and 20 μl lysate was prepared in a cuvette. The reaction was initiated by addition of 20 μL of 10 mM NAD(P)H. A substrate free control was conducted using reaction buffer without the addition of acetolactate.
(§2) Purification of KARI: Cell pellets used for purification were resuspended in purification buffer A (20 mM Tris, 20 mM imidazol, 100 mM NaCl, 10 mM MgCl2, pH 7.4). KARI was purified by IMAC (Immobilized metal affinity chromatography) over a 1 ml Histrap High Performance (histrap HP) column pre-charged with Nickel (GE Healthcare) using an Akta FPLC system (GE Healthcare). […]

[3] = molecular target: T3, E. coli KARI Ec_IlvC variant Ec_IlvC^P2D1-A1-his6 (Ec_IlvC^P2D1-his6 with K433E), SEQ ID NO: 42 (Escherichia coli, UniProt P05793, A71S/D146G/G185R/K433E/Q110V/R76D/S78D); experiment: KARI assay, purified Ec_IlvC^P2D1-A1-his6; type: biochemical; conditions: expressed in yeast GEVO1186, purified
T3 sequence (P05793 with tags, fused parts or gaps A71S/R76D/S78D/Q110V/D146G/G185R/K433E): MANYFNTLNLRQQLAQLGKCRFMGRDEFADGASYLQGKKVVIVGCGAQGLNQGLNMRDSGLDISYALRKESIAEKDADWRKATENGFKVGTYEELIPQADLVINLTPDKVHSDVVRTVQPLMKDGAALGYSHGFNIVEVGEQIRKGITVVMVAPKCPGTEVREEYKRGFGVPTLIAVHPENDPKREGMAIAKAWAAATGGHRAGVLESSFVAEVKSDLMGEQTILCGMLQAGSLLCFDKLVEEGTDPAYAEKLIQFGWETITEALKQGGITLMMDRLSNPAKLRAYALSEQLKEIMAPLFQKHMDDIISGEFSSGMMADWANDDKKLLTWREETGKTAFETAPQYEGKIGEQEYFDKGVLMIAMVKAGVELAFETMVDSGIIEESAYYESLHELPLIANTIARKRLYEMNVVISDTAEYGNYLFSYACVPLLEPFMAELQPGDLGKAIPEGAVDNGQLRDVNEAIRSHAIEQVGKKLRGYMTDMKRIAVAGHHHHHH
Experimental: as §1, §2

[4] = tested on: Lactococcus lactis alcohol dehydrogenase Ll_AdhA, SEQ ID NO: 67; conditions: NADPH as cofactor; cited from earlier work
[5] = substrate: NC(=O)C1=CN([C@@H]2O[C@H](COP(=O)(O)OP(=O)(O)OC[C@H]3O[C@@H](n4cnc5c(N)ncnc54)[C@H](O)[C@@H]3O)[C@@H](O)[C@H]2O)C=CC1; experiment: KARI cuvette assay, purified Ec_IlvC^Q110A-his6; type: biochemical, E. coli
Experimental: as §1, §2

[6] = substrate: NC(=O)C1=CN([C@@H]2O[C@H](COP(=O)(O)OP(=O)(O)OC[C@H]3O[C@@H](n4cnc5c(N)ncnc54)[C@H](O)[C@@H]3O)[C@@H](O)[C@H]2O)C=CC1; experiment: KARI cuvette assay, purified Ec_IlvC^S78D-his6; type: biochemical, E. coli
Experimental: as §1
(§3) Purification of KARI: Cell pellets used for purification were resuspended in purification buffer A (20 mM Tris, 20 mM imidazol, 100 mM NaCl, 10 mM MgCl2, pH 7.4). KARI was purified by IMAC (Immobilized metal affinity chromatography) over a 1 ml Histrap High Performance (histrap HP) column pre-charged with Nickel (GE Healthcare) using an Akta FPLC system (GE Healthcare). The column was equilibrated with four column volumes (cv) of buffer A. After injecting the crude extract, the column was washed with buffer A for 2 cv, followed by a wash step with a mixture of 10% elution buffer B (20 mM Tris, 300 mM imidazol, 100 mM NaCl, 10 mM MgCl2, pH 7.4) for 5 cv. KARI variants were eluted at 40% buffer B and stored at 4° C.
(§4) Five individual site saturation libraries were generated and electro-competent E. coli BL21(DE3) cells were transformed with the desalted ligation mixtures. 88 clones of each library were screened for NAD(P)H depletion at 340 nm in microplates. Clones with an improved NADH/NADPH consumption ratio while maintaining or increasing their NADH activity were chosen for a rescreen. Variants that passed the rescreen were sequenced, expressed in shake flasks, purified, and characterized. […]

[7] = substrate: NC(=O)C1=CN([C@@H]2O[C@H](COP(=O)(O)OP(=O)(O)OC[C@H]3O[C@@H](n4cnc5c(N)ncnc54)[C@H](OP(=O)(O)O)[C@@H]3O)[C@@H](O)[C@H]2O)C=CC1; experiment: KARI cuvette assay, purified Ec_IlvC^S78D-his6; type: biochemical, E. coli; conditions: other: purified
Experimental: as §1, §3, §4

[8] = substrate: NC(=O)C1=CN([C@@H]2O[C@H](COP(=O)(O)OP(=O)(O)OC[C@H]3O[C@@H](n4cnc5c(N)ncnc54)[C@H](O)[C@@H]3O)[C@@H](O)[C@H]2O)C=CC1; experiment: KARI cuvette assay, purified Ec_IlvC^Q110V-his6; type: biochemical, E. coli
Experimental: as §1, §2

[9] = other: purified, acetolactate as substrate

## NC(=O)C1=CN([C@@H]2O[C@H](COP(=O)(O)OP(=O)(O)OC[C@H]3O[C@@H](n4cnc5c(N)ncnc54)[C@H](OP(=O)(O)O)[C@@H]3O)[C@@H](O)[C@H]2O)C=CC1 [NADPH, nicotinamide adenine dinucleotide phosphate]
[1]
  kcat/KM: 87,300 M^−1 * s^−1
[2]
  decrease of KM value compared to wild-type: 16 fold
[3]
  Km: > 1.43 mM
  kcat/KM: <377 M^−1 * S^−1
[4]
  activity when tested with NADPH as a cofactor: ^adid not show any detectably activity when tested with NADPH as a cofactor

B1: E. coli KARI Ec_IlvC variant Ec_IlvC^Q110A-his6 (Q110A), SEQ ID NO: 21 (Escherichia coli K-12; Q110A) (protein)
chain: MANYFNTLNLRQQLAQLGKCRFMGRDEFADGASYLQGKKVVIVGCGAQGLNQGLNMRDSGLDISYALRKEAIAEKRASWRKATENGFKVGTYEELIPQADLVINLTPDKAHSDVVRTVQPLMKDGAALGYSHGFNIVEVGEQIRKDITVVMVAPKCPGTEVREEYKRGFGVPTLIAVHPENDPKGEGMAIAKAWAAATGGHRAGVLESSFVAEVKSDLMGEQTILCGMLQAGSLLCFDKLVEEGTDPAYAEKLIQFGWETITEALKQGGITLMMDRLSNPAKLRAYALSEQLKEIMAPLFQKHMDDIISGEFSSGMMADWANDDKKLLTWREETGKTAFETAPQYEGKIGEQEYFDKGVLMIAMVKAGVELAFETMVDSGIIEESAYYESLHELPLIANTIARKRLYEMNVVISDTAEYGNYLFSYACVPLLKPFMAELQPGDLGKAIPEGAVDNGQLRDVNEAIRSHAIEQVGKKLRGYMTDMKRIAVAGLEHHHHH
[5]; [9]
  kcat/Km: 11100 M⁻¹ s⁻¹
[5]; with NADH
  kcat/Km: 302000 M⁻¹ s⁻¹

B2: E. coli KARI Ec_IlvC variant Ec_IlvC^S78D-his6 (S78D), SEQ ID NO: 17 (Escherichia coli K-12; S78D) (protein)
chain: MANYFNTLNLRQQLAQLGKCRFMGRDEFADGASYLQGKKVVIVGCGAQGLNQGLNMRDSGLDISYALRKEAIAEKRADWRKATENGFKVGTYEELIPQADLVINLTPDKQHSDVVRTVQPLMKDGAALGYSHGFNIVEVGEQIRKDITVVMVAPKCPGTEVREEYKRGFGVPTLIAVHPENDPKGEGMAIAKAWAAATGGHRAGVLESSFVAEVKSDLMGEQTILCGMLQAGSLLCFDKLVEEGTDPAYAEKLIQFGWETITEALKQGGITLMMDRLSNPAKLRAYALSEQLKEIMAPLFQKHMDDIISGEFSSGMMADWANDDKKLLTWREETGKTAFETAPQYEGKIGEQEYFDKGVLMIAMVKAGVELAFETMVDSGIIEESAYYESLHELPLIANTIARKRLYEMNVVISDTAEYGNYLFSYACVPLLKPFMAELQPGDLGKAIPEGAVDNGQLRDVNEAIRSHAIEQVGKKLRGYMTDMKRIAVAGLEHHHHHH
[6]; [9]
  kcat/Km: 27,600 M^−1 * s^−1
[6]; with NADH
  kcat/Km: 3770 M⁻¹ s⁻¹
[7]
  Km: 130 µM

B3: E. coli KARI Ec_IlvC variant Ec_IlvC^Q110V-his6 (Q110V), SEQ ID NO: 23 (Escherichia coli K-12; Q110V) (protein)
chain: MANYFNTLNLRQQLAQLGKCRFMGRDEFADGASYLQGKKVVIVGCGAQGLNQGLNMRDSGLDISYALRKEAIAEKRASWRKATENGFKVGTYEELIPQADLVINLTPDKVHSDVVRTVQPLMKDGAALGYSHGFNIVEVGEQIRKDITVVMVAPKCPGTEVREEYKRGFGVPTLIAVHPENDPKGEGMAIAKAWAAATGGHRAGVLESSFVAEVKSDLMGEQTILCGMLQAGSLLCFDKLVEEGTDPAYAEKLIQFGWETITEALKQGGITLMMDRLSNPAKLRAYALSEQLKEIMAPLFQKHMDDIISGEFSSGMMADWANDDKKLLTWREETGKTAFETAPQYEGKIGEQEYFDKGVLMIAMVKAGVELAFETMVDSGIIEESAYYESLHELPLIANTIARKRLYEMNVVISDTAEYGNYLFSYACVPLLKPFMAELQPGDLGKAIPEGAVDNGQLRDVNEAIRSHAIEQVGKKLRGYMTDMKRIAVAGLEHHHHHH
[8]; [9]
  kcat/Km: 24800 M⁻¹ s⁻¹
[8]; with NADH
  kcat/Km: 569000 M⁻¹ s⁻¹
